Test results reported in US20100204053.

Tested on: RSK2
Sequence (chain, as listed by the source): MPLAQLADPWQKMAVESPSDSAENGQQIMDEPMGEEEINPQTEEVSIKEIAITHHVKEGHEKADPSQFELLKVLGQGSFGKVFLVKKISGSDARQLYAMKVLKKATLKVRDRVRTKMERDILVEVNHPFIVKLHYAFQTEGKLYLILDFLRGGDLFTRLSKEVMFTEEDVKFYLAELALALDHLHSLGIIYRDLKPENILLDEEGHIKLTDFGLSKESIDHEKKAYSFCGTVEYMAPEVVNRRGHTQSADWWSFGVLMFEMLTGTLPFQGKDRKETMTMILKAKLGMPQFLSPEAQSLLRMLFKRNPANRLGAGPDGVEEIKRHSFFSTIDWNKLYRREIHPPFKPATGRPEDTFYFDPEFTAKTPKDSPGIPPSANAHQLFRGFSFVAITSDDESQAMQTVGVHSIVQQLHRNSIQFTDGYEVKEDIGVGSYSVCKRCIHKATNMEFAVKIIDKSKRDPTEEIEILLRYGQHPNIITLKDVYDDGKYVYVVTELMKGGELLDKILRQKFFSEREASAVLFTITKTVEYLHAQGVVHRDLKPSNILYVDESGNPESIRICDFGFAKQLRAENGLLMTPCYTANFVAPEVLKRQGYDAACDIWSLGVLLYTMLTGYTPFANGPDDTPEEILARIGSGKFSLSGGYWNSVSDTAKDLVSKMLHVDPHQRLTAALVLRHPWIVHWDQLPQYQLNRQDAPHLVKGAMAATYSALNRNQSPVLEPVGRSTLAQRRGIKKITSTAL

WWP1 was tested, and the RSK2 ubiquitination was “SHN3 and WWP1 can promote RSK2 ubiquitination”.
